Values quoted from earlier work as cited in publication PMC8573850.
“And” between values parts separate entries of the source, which are not always exact repeats. Identical values can stand only once.

Target: Neuropilin-1 (Homo sapiens) (UniProt O14786)
Sequence of UniProt O14786 (O14786 22-856): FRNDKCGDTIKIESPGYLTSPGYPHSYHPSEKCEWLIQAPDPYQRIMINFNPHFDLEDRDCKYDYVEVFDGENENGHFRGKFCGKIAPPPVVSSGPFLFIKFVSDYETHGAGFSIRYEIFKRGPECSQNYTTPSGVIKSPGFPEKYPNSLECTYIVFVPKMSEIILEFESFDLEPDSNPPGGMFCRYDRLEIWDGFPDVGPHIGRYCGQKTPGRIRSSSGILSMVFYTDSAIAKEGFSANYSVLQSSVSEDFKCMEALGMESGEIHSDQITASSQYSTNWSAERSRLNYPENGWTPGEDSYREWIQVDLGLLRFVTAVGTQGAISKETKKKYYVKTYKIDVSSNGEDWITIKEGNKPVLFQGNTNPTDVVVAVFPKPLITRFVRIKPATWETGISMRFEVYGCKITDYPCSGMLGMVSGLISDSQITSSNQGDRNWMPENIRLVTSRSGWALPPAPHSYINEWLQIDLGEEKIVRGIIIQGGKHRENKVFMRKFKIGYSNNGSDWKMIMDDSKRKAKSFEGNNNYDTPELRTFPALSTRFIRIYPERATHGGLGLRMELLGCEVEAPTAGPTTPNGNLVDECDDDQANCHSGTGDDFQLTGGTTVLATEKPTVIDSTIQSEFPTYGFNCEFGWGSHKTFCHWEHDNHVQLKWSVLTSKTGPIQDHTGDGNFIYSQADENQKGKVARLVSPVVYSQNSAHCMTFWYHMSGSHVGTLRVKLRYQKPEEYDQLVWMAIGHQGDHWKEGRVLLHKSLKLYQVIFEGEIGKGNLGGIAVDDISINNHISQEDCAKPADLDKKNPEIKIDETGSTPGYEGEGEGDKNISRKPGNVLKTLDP

Substance: Spike protein CendR peptide CendR (from UniProt P0DTC2)
- Kd: 13 µM and 20 µM
